Where “and” joins values, the source holds several entries; their conditions need not be identical. Equal values may be shown once. Read-outs that look alike come from different tables or passages of the source.
Tests used:
[1] = molecular target: T1, Recombinant human EGFR-Fc (aa 1-645 of the extracellular domain of human EGFR fused to human Fc) (human, UniProt P00533 25-645)
T1 construct: range 1-645; bought from R&D Systems; also called EGFR645-Fc; EGFR-Fc (HER-1); not shown: human Fc

[2] = molecular target: T2, IGF1R-Fc (extracellular domain of human IGF1R aa 1-932 fused to hinge and constant regions of human IgG1) (human, UniProt P08069 31-932)
T2 construct: range 1-932; made in house by transient transfection, purified on Protein A; also called IGF-IR-Fc; not shown: hinge and constant regions of human IgG1

[3] = molecular target: T3, EGFR on the surface of human tumour cells (A431, H292) (human, UniProt P00533 25-1210); experiment: cell-based or functional assay
[4] = molecular target: T4, IGF-IR on human tumour cells (H292, MCF-7, RH41) (human, UniProt P08069 31-1367); experiment: cell-based or functional assay
[5] = molecular target: T3, EGFR on the surface of human tumour …; experiment: cell-based or functional assay; remark: listed apart in the source
[6] = molecular target: rat EGFR (rat, UniProt A0ABK0LZB0 35-1214); experiment: SPR Biacore
[7] = molecular target: monkey EGFR (monkey); experiment: SPR Biacore
[8] = molecular target: mouse EGFR (mouse, UniProt Q01279 25-647, limits assumed); experiment: SPR Biacore
[9] = molecular target: T3, EGFR on the surface of human tumour …
[10] = molecular target: T1, Recombinant human EGFR-Fc (aa 1-645 of …); remark: listed apart in the source
[11] = molecular target: T4, IGF-IR on human tumour cells (H292, …); experiment: cell-based or functional assay; remark: listed apart in the source
[12] = molecular target: T3, EGFR on the surface of human tumour …; experiment: cell-based or functional assay; remark: listed apart in the source
[13] = molecular target: T2, IGF1R-Fc (extracellular domain of human …); remark: listed apart in the source
[14] = molecular target: T3, EGFR on the surface of human tumour …; experiment: cell-based or functional assay; remark: listed apart in the source
[15] = molecular target: T2, IGF1R-Fc (extracellular domain of human …); remark: listed apart in the source
[16] = molecular target: T3, EGFR on the surface of human tumour …; remark: listed apart in the source
[17] = molecular target: T1, Recombinant human EGFR-Fc (aa 1-645 of …); remark: listed apart in the source
[18] = molecular target: T4, IGF-IR on human tumour cells (H292, …); experiment: cell-based or functional assay; remark: listed apart in the source
[19] = molecular target: T3, EGFR on the surface of human tumour …; experiment: cell-based or functional assay; remark: listed apart in the source
[20] = molecular target: T3, EGFR on the surface of human tumour …; remark: listed apart in the source
[21] = molecular target: T4, IGF-IR on human tumour cells (H292, …); experiment: cell-based or functional assay; remark: listed apart in the source

Binder | IC50 [9] | Kd [10] | koff [10] | kon [10] | IC50, IGF1-stimulated IGFR phosphorylation, H292 cells, ELISA [11] | IC50, EGF-stimulated EGFR phosphorylation, A431 cells, In Cell Western [12] | IC50, EGF-stimulated EGFR phosphorylation, H292 cells, ELISA [12] | IC50, EGF-stimulated ERK phosphorylation, A431 cells, In Cell Western [12] | Kd [13] | koff [13] | kon [13] | Kd [15] | IC50 [16] | Kd [17] | H292 pIGF-IR IC50 (ELISA) [18] | A431 pEGFR IC50 (In-Cell Western) [19] | A431 pERK IC50 (In-Cell Western) [19] | H292 pEGFR IC50 (ELISA) [19] | further results
E4-GS10-I1 pegylated, His-tagged (designed binder, 40 kDa branched PEG on the Cys of the C-terminal Cys tail, also called E4-GS10-I1 (with Peg)) MGVSDVPRDLEVVAATPTSLLISWHERDGSRQYYRITYGETGGNSPVQEFTVPGGVRTATISGLKPGVDYTITVYAVTDYFNPTTHEYIYQTTPISINYRTEIDKGSGSGSGSGSGSGSGSGSGSVSDVPRDLEVVAATPTSLLISWSARLKVARYYRITYGETGGNSPVQEFTVPKNVYTATISGLKPGVDYTITVYAVTRFRDYQPISINYRTEIDKPCQHHHHHH | 19.5 nM | – | – | – | – | – | – | – | – | – | – | – | – | – | – | – | – | – | Kd [1]: 4.77 nM; Kd [2]: 0.77 nM; H292 colony formation assay IC50 [3]: 5 nM; IC50, IGF1-stimulated IGFR phosphorylation, H292 cells, ELISA [4]: 0.4 nM; IC50, EGF-induced EGFR phosphorylation, A431 cells, In Cell Western [5]: 12 nM; IC50, EGF-induced ERK phosphorylation, A431 cells, In Cell Western [5]: 12 nM; IC50, EGF-stimulated EGFR phosphorylation, H292 cells, ELISA [5]: 1.3 nM; Kd [6]: 5.6 nM; Kd [7]: 5.7 nM; Kd [8]: 6.9 nM
E1-GS10-I1 pegylated, His-tagged (designed binder, 40 kDa branched PEG on the Cys of the C-terminal Cys tail, also called E1-GS10-I1 (with PEG)) MGVSDVPRDLEVVAATPTSLLISWVAGAEDYQYYRITYGETGGNSPVQEFTVPHDLVTATISGLKPGVDYTITVYAVTDMMHVEYTEHPISINYRTEIDKGSGSGSGSGSGSGSGSGSGSVSDVPRDLEVVAATPTSLLISWSARLKVARYYRITYGETGGNSPVQEFTVPKNVYTATISGLKPGVDYTITVYAVTRFRDYQPISINYRTEIDKPCQHHHHHH | 238 nM | – | – | – | – | – | – | – | – | – | – | 2.4 nM | 396 nM | 57.9 nM | 4 nM | 297 nM | 295 nM | 123 nM | inhibition of EGF induced EGFR phosphorylation, A431, IC50 [14]: 297 nM; inhibition of EGF induced ERK phosphorylation, A431, IC50 [14]: 295 nM; inhibition of EGFR activity, H292 cells, IC50 [14]: 123 nM; Kd [2]: 2.43 nM
E1-GS10-I1, His-tagged, non-pegylated (designed binder, bispecific EGFR/IGF-IR tandem of two 10Fn3 domains) MGVSDVPRDLEVVAATPTSLLISWVAGAEDYQYYRITYGETGGNSPVQEFTVPHDLVTATISGLKPGVDYTITVYAVTDMMHVEYTEHPISINYRTEIDKGSGSGSGSGSGSGSGSGSGSVSDVPRDLEVVAATPTSLLISWSARLKVARYYRITYGETGGNSPVQEFTVPKNVYTATISGLKPGVDYTITVYAVTRFRDYQPISINYRTEIDKPSQHHHHHH | – | 10.2 nM and 7.53 nM | 0.000389 s⁻¹ and 0.000474 s⁻¹ | 38200 M⁻¹ s⁻¹ and 62900 M⁻¹ s⁻¹ | – | – | – | – | 0.66 nM | 0.000338 s⁻¹ | 513000 M⁻¹ s⁻¹ | 0.8 nM | 51 nM | 3.8 nM | 1 nM | 36 nM | 51 nM | 30 nM | IC50 [20]: 14.6 nM; inhibition of IGF1-stimulated IGF1R phosphorylation (Y1131), H292 cells, ELISA, IC50 [21]: 4 nM; inhibition of RH41 cell proliferation, IC50 [21]: 9 nM; inhibition of EGF-stimulated EGFR phosphorylation (Y1068), H292 cells, ELISA, IC50 [14]: 20 nM
E3-GS10-I1 pegylated, His-tagged (designed binder, 40 kDa branched PEG on the Cys of the C-terminal Cys tail, also called E3-GS10-I1-Cys (with his)) MGVSDVPRDLEVVAATPTSLLISWLPGKLRYQYYRITYGETGGNSPVQEFTVPHDLRTATISGLKPGVDYTITVYAVTNMMHVEYSEYPISINYRTEIDKGSGSGSGSGSGSGSGSGSGSVSDVPRDLEVVAATPTSLLISWSARLKVARYYRITYGETGGNSPVQEFTVPKNVYTATISGLKPGVDYTITVYAVTRFRDYQPISINYRTEIDKPCQHHHHHH | 89 nM | – | – | – | – | – | – | – | – | – | – | 0.74 nM | 80.5 nM | 10.4 nM | 6 nM | 42 nM | 40 nM | 10 nM | inhibition of IGFR activity, H292 cells, IC50 [21]: 6 nM
I1GS10-E3 (Pegylated) (designed binder, Cys of the C-terminal Cys tail conjugated to 40 kDa branched PEG) I/E tandem 10Fn3 chain: MGVSDVPRDLEVVAATPTSLLISWSARLKVARYYRITYGETGGNSPVQEFTVPKNVYTATISGLKPGVDYTITVYAVTRFRDYQPISINYRTEIDKGSGSGSGSGSGSGSGSGSGSVSDVPRDLEVVAATPTSLLISWLPGKLRYQYYRITYGETGGNSPVQEFTVPHDLRTATISGLKPGVDYTITVYAVTNMMHVEYSEYPISINYRTEIDKPCQHHHHHH | – | – | – | – | 2 nM | 47 nM | 46 nM | 50 nM | – | – | – | – | – | – | – | – | – | – | –

Continued, in another order:

IC50 [9] | Kd [10] | koff [10] | kon [10] | IC50, IGF1-stimulated IGFR phosphorylation, H292 cells, ELISA [11] | IC50, EGF-stimulated EGFR phosphorylation, A431 cells, In Cell Western [12] | IC50, EGF-stimulated EGFR phosphorylation, H292 cells, ELISA [12] | IC50, EGF-stimulated ERK phosphorylation, A431 cells, In Cell Western [12] | Kd [13] | koff [13] | kon [13] | Kd [15] | IC50 [16] | Kd [17] | H292 pIGF-IR IC50 (ELISA) [18] | A431 pEGFR IC50 (In-Cell Western) [19] | A431 pERK IC50 (In-Cell Western) [19] | H292 pEGFR IC50 (ELISA) [19] | Binder | further results
– | 2.48 nM | 0.000291 s⁻¹ | 117000 M⁻¹ s⁻¹ | 19 nM | 47 nM | 25 nM | 42 nM | 0.03 nM | 4.54e-05 s⁻¹ | 1.37e+06 M⁻¹ s⁻¹ | – | – | – | – | – | – | – | I1-GS10-E3, non-pegylated (designed binder) VSDVPRDLEVVAATPTSLLISWSARLKVARYYRITYGETGGNSPVQEFTVPKNVYTATISGLKPGVDYTITVYAVTRFRDYQPISINYRTEIDKGSGSGSGSGSGSGSGSGSGSVSDVPRDLEVVAATPTSLLISWLPGKLRYQYYRITYGETGGNSPVQEFTVPHDLRTATISGLKPGVDYTITVYAVTNMMHVEYSEYPISINYRTEIDKPSQ | –
– | 4.8 nM and 10.3 nM | 0.000603 s⁻¹ and 0.000425 s⁻¹ | – | 1 nM | 93 nM | 42 nM | 99 nM | 0.27 nM | 0.000398 s⁻¹ | 1.47e+06 M⁻¹ s⁻¹ | – | – | – | – | – | – | – | I1-GS10-E1, His-tagged, non-pegylated (designed binder) MGVSDVPRDLEVVAATPTSLLISWSARLKVARYYRITYGETGGNSPVQEFTVPKNVYTATISGLKPGVDYTITVYAVTRFRDYQPISINYRTEIDKGSGSGSGSGSGSGSGSGSGSVSDVPRDLEVVAATPTSLLISWVAGAEDYQYYRITYGETGGNSPVQEFTVPHDLVTATISGLKPGVDYTITVYAVTDMMHVEYTEHPISINYRTEIDKPSQHHHHHH | IC50 [20]: 7 nM
– | 0.66 nM | 0.000229 s⁻¹ | 349000 M⁻¹ s⁻¹ | – | – | – | – | 0.12 nM | 0.000209 s⁻¹ | 1.8e+06 M⁻¹ s⁻¹ | 0.1 nM | 25 nM | 0.7 nM | 6 nM | 14 nM | 12 nM | 7 nM | E3-GS10-I1, non-pegylated (designed binder) VSDVPRDLEVVAATPTSLLISWLPGKLRYQYYRITYGETGGNSPVQEFTVPHDLRTATISGLKPGVDYTITVYAVTNMMHVEYSEYPISINYRTEIDKGSGSGSGSGSGSGSGSGSGSVSDVPRDLEVVAATPTSLLISWSARLKVARYYRITYGETGGNSPVQEFTVPKNVYTATISGLKPGVDYTITVYAVTRFRDYQPISINYRTEIDKPSQ | –
